The results in this text go back to paper PMC4512722.

In assay [1] the target is tomato pectin methylesterase PME1 (tomato) (UniProt P14280).
Assay [2] has the same target. Description: SPR; tomato PME1 immobilised by amine coupling on a COOH5 chip (SensiQ Pioneer), VvPMEI1 injected at 2.3-300 nM, 25°C, 10 mM NaOAc pH 5.5, 0.1 M NaCl, 0.005% Tween-20; 1:1 interaction model. On the technique in general: SPR reads the build-up and loss of mass on a sensor chip optically.
Assay [3] has the same target. The assay can be described thus: SPR; tomato PME1 immobilised by amine coupling on a COOH5 chip (SensiQ Pioneer), VvPMEI1 injected at 2.3-300 nM, 25°C, 10 mM HEPES pH 7.5, 0.1 M NaCl, 0.005% Tween-20; 1:1 interaction model.

Broadly, the Kd is the concentration at which binding is half-saturated. Read a high Kd as weaker binding. One may read the koff as the rate constant with which the complex falls apart. A higher koff goes with a short-lived complex.

UniProt P14280, sequence (P14280 230-546): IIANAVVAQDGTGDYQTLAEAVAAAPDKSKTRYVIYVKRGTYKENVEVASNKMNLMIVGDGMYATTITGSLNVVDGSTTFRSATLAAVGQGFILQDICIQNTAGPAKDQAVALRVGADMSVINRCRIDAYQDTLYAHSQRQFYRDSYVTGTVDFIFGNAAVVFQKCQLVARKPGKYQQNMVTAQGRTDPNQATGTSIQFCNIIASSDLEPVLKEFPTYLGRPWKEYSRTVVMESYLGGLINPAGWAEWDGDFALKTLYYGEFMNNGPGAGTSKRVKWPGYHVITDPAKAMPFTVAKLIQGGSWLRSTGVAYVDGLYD

In assay [1], “VvPMEI1, pectin methylesterase inhibitor of Vitis vinifera (recombinant) (natural protein)” came in with an inhibitory activity (%) at pH 6.5, inhibition at pH 5.5 taken as 100% of 100% and an inhibitory activity (%) at pH 7.5, inhibition at pH 5.5 taken as 100% of 84%. Further, in assay [2], the Kd was 4.77 nM and the koff is 0.00317 s⁻¹. In assay [3], this substance showed a Kd of 35 nM and an off-rate constant (koff) of 0.026 s⁻¹.
